Tests used:
[1] = molecular target: T1, recombinant human GPC3 (Cat. No. 2119-GP-050, R&D systems) purified from HEK293 cells (human, UniProt P51654 25-559); experiment: SPR, Biacore T-200, GPC3 immobilised on CM5 chip, antibody flowed 0.078-5 nM
T1 construct: Bought protein
Experimental: Quantitative binding capacity (affinity) of GX102 and GX270 clone antibodies, purified anti-GPC3 antibodies, to recombinant human GPC 3 was measured using a Biacore T-200(GE Healthcare, U.S.) biosensor. After immobilizing GPC3 (Cat. No. 2119-GP-050, R&D systems) purified from HEK293 cells onto a CM5 chip (GE Healthcare) to an Rmax of 200 using an amine-carboxyl reaction, the GX102 or GX270 antibody sequentially diluted in a HBS-EP buffer solution (10 mM HEPES, pH7.4, 150 mM NaCl, 3 mM EDTA, 0.005% surfactant P20) was flowed at a flow rate of 30 μL/min in a concentration range of 0.078 nM to 5 nM for an association time of 120 seconds and a dissociation time of 1800 seconds. Dissociation of the antibody bound to GPC3 was induced by flowing 10 mM Glycine-HCl (pH1.5) at a flow rate of 30 μL/min for 30 seconds (Table 3). Affinity was obtained as kinetic rate constants (Kₒₙ and Koff) and an equivalent dissociation constant (KD) using a Biacore T-200 evaluation software (Table 4).

[2] = molecular target: T2, GPC3 on the surface of hepatic cancer cell lines (SK-Hep1-GPC3 transfectant, HepG2, Huh7, Hep3B, SNU398) (human, UniProt P51654 25-554); experiment: FACS, HepG2 cells, 1 ug antibody; lower right panel
T2 construct: Species is not restated for the cells (hepatic cancer cell lines, or SK-Hep1 transfected with pCMV/GPC3); also called glypican 3

[3] = molecular target: T2, GPC3 on the surface of hepatic cancer …; experiment: FACS, SK-Hep1-GPC3 cells, 1 ug antibody; lower right panel
Experimental: (§1) After detaching SK-Hep1-GPC3 cells by adding a TrypLE Express solution thereto, the detached SK-Hep1-GPC3 cells were put into a 50 mL tube and centrifuged at room temperature and 2000 rpm for 3 minutes to remove a culture medium, followed by washing with PBS once. The resultant was suspended using a FACS buffer, transferred to a round bottom tube, and centrifuged at room temperature and 2000 rpm for 3 minutes. A supernatant was removed, and the resultant was suitably dissolved using the FACS buffer so as to have a concentration of 4×10⁵ ea/mL. Then, a candidate antibody (1 μg) was added thereto at 4° C., and in an […] control group, a human IgG (1m, Sigma) was added instead of the candidate antibody. After 1 hour, the resultant was washed with the FACS buffer two times, a goat anti-human IgG antibody and FITC conjugated were added thereto at an amount of 1 μL per sample and bound thereto at 4° C. for 30 minutes. After collecting cells by centrifugation at 2000 rpm for 3 minutes, the cells were re-suspended by adding a fixation buffer (500 μL), and measured using a FACS calibur (FIG. 5).

[4] = molecular target: T2, GPC3 on the surface of hepatic cancer …; experiment: FACS, SK-Hep1-GPC3 #9 cells, 1 ug antibody; lower left panel
Experimental: as §1

[5] = molecular target: T2, GPC3 on the surface of hepatic cancer …; experiment: FACS, HepG2 cells, 1 ug antibody; lower left panel (Human naive library)

| Binder | Kd [1] [nM] | Mean, FL2-H [2] | Mean, FL2-H [3] | Mean, FL2-H [4] | Mean, FL2-H [5] |
| --- | --- | --- | --- | --- | --- |
| GX270 clone antibody (purified anti-GPC3 antibody) (antibody, V domains shown, Purified antibody; also called GX270 antibody; GX270 candidate antibody) VH: QVQLVQSGAEVKKPGASVKVSCKTSGYTFTSSYMHWVRQAPGQGLEWMGIINPNSRGTNYAQKFQGRVTMTSDTSISTAYMELSSLISDDTAVYYCASSSGDYPDYWGQGTLVTVSS VL: SYELTQPPSVSVSPGQTARIACSGDALPKHYAYWYQQKSGQAPVLVVYEDKKRPAGIPERFSGSSSGTVATLTISGAQVEDEAHYYCYSTDTSGNHRVFGGGTKLTVLG | 0.07 | 14.5 | 174 | – | – |
| GX102 clone antibody (purified anti-GPC3 antibody) (antibody, V domains shown, Purified antibody; also called GX102 antibody; GX102 candidate antibody) VH: not shown VL: GQSVLTQPPSASETPGQKVTISCSGSSSNIGTNHVFWYQQLPGTAPKLLIYRNNLRPSGVPDRFSGSKSGTSASLAISGLRSEDEADYYCAAWDDSLSWVFGGGTKLTVLG | 0.0092 | 18.7 | 317 | – | – |
| clone GN337 (scFv, V domains shown, scFv library clone tested as culture supernatant) VH: EVQLVESGPGLVKPSQTLSLTCTVSGGSVSSGGYHWNWIRQHPGKGLEWIGYIFNSGNTDYNPSLRSRLTISQDTSKNQFSLKLSSVTAADTAVYYCARHRSRLLRWFDYWGQGTMVTVSS VL: DVVLTQSPSSLSAFVGDRVTITCQASQDIRKYLNWFQQKPGKAPKLLIYDASTLETGVSSRFSGSGSGTHFNLVISSLEPEDSATYYCQQHDFVPRTFGQGTKLEIKR | – | – | – | 3.81 | 30.8 |
| clone GX122 (scFv, V domains shown, scFv library clone tested as culture supernatant) VH: EVQLVESGAEVKKPGASVKVSCKASGYTFTSYYMHWVRQAPGQGLEWMGIINPSGGSTSYAQKFQGRVTMTRDTSTSTVYMELSSLRSEDTAVYYCARDGGSSPDIWGQGTMVTVSS VL: SYELTQPPSVSVSPGQTARITCSGDALPKKYAYWYQQKSGQAPVLVIYEDKKRPSEIPERFSGSSSGTMATLTITGAQVDDEADYYCYSIDRSGSRGVFGGGTKLTVLG | – | – | – | 11.6 | 52.2 |

From patent US20180346592A1 (MOGAM INSTITUTE FOR BIOMEDICAL RESEARCH, published 2018)
